Experimental data taken from patent publication US12624112 (MABWELL SHANGHAI BIOSCIENCE, dated 2026).

T1: ST2 on KU812 cells (UniProt Q01638 19-556, limits assumed)
T1 sequence (looked up): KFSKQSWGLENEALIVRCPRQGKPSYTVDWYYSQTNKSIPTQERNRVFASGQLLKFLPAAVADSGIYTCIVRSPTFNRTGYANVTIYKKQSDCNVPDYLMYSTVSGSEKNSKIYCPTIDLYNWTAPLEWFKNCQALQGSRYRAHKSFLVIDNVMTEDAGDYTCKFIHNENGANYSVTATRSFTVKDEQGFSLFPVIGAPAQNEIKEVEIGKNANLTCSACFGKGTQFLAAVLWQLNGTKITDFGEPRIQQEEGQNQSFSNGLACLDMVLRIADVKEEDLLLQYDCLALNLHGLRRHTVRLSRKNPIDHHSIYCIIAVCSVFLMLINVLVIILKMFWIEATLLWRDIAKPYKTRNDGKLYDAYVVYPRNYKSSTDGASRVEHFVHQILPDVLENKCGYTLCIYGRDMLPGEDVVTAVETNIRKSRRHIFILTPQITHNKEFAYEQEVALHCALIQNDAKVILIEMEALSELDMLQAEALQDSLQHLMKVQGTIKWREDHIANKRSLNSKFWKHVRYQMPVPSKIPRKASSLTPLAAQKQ

T2: Cyno ST2-fc (cyno; human, UniProt A0A2K5UDB8 19-331)
T2 construct: also called cyno ST2 fused with a human IgG1 Fc tag at the C-terminus
T2 sequence: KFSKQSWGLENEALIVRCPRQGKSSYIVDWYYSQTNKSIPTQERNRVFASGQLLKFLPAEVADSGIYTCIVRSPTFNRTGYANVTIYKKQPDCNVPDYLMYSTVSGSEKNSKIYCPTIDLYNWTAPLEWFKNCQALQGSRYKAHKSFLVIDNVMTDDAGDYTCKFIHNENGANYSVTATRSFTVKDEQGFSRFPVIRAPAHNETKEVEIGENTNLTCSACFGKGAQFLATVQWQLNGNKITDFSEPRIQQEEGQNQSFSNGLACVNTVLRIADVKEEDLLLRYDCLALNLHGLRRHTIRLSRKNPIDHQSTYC

T3: Human ST2-his (human, UniProt Q01638 19-328)
T3 construct: Expressed in CHO-K1; also called human ST2 fused with a 6-histidine tag at the C-terminus
T3 sequence: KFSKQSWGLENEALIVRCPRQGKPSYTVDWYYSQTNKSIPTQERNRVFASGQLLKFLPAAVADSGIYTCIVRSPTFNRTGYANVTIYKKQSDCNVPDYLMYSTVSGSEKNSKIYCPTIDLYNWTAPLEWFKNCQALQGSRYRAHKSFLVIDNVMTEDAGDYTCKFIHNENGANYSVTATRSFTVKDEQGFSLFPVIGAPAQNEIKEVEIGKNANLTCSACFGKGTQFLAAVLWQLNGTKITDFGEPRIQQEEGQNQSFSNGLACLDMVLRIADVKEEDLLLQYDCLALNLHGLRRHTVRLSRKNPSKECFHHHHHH


Tests used:
ST2 on KU812 cells [1] = molecular target: T1, ST2 on KU812 cells; assay: cell-based or functional assay
ST2 on KU812 cells [2] = molecular target: T1, ST2 on KU812 cells; assay: cell-based or functional assay; remark: listed apart in the source
Cyno ST2-fc [3] = molecular target: T2, Cyno ST2-fc; assay: ELISA, coated cyno ST2-fc
Description: Cyno ST2-fc was diluted with a coating buffer to 1 μg/mL, added into 96-well plates at 50 μL/well and coated overnight at 4° C. Next day, the coated plates were taken, washed with PB ST for 3 times, and then incubated using a blocking buffer at room temperature for 1 hr. Subsequently, the plates were washed with PBST for 3 times again. Starting at 1000 ng/mL, each murine antibody was diluted 3-fold to obtain serial dilutions of 8 concentrations in total which were then added into the 96-well plates at 50 μL/well. The plates were incubated at room temperature for 1 hr, washed with PB ST for 3 times; and then a goat anti-mouse secondary antibody (1:10000) was added at 50 μL/well into the 96-well plates which subsequently were incubated at room temperature for 1 hr. The 96-well plates were washed with PB ST for 3 times, and TMB was added at 50 μL/well to develop color in dark for 10 min. Afterwards, 2 M sulfuric acid was added to stop reaction; and GD values at 450 nm were read by a microplate reader. It can be seen that the murine antibodies can bind to cyno ST2, with a binding trendency consistent with the binding to human ST2.

Human ST2-his [4] = molecular target: T3, Human ST2-his; assay: ELISA, coated human ST2-his
Description: Human ST2-his was diluted with a coating buffer to 1 μg/mL, added into plates at 50 μL/well, and coated overnight at 4° C. Next day, the coated plates were taken, washed with PBST for 3 times, and then incubated using a blocking buffer at room temperature for 1 hr. Subsequently, the plates were washed with PBST for 3 times again. Starting at 100 ng/mL, each murine antibody was diluted 3-fold to obtain serial dilutions of 8 concentrations in total which were then added into the 96-well plates at 50 μL/well. The plates were incubated at room temperature for 1 hr, washed with PBST for 3 times; and then a goat anti-mouse secondary antibody (1:10000) was added at 50 μL/well into the 96-well plates which subsequently were incubated at room temperature for 1 hr. The 96-well plates were washed with PBST for 3 times, and TMVB was added at 50 μL/well to develop color in dark for 10 min. Afterwards, 2 M sulfuric acid was added to stop reaction; and GD values at 450 nm were read by a micro-plate reader.

Human ST2-fc (human) = Human ST2-fc (human) (UniProt Q01638); assay: competition ELISA, coated ST2-fc, competitor IL33-his
Cyno ST2-fc [5] = molecular target: T2, Cyno ST2-fc; assay: SPR Biacore X100, antibody on CM5, cyno ST2-fc analyte
Description: The experiment on the interactions between the anti-human ST2 antibodies and cyno ST2-fc was performed using Biacore X100, and was carried out at 25° C. in HBS-EP (1×) buffer (pH 7.4). Each antibody was immobilized on the surface of CM5 chip using an amino coupling kit. Following the antibody immobilization, a solution of cyno ST2-fc (2-fold gradient dilution from a starting concentration of 8 nM, to obtain 6 concentrations in total; the starting concentration might be increased if the signal of some sample was too low) was injected. Association was monitored for 2 min and dissociation for 10 min, and the sensor surface was regenerated by injecting a solution of glycine at pH 1.5.

Human ST2-his [6] = molecular target: T3, Human ST2-his; assay: SPR Biacore X100, antibody on protein A, ST2-his analyte
Description: On the basis of the results of the quantitative screenings of murine antibodies above together, 19 murine antibodies were selected for affinity determination and in vitro pharmacological study. The experiment on the interaction between the anti-human ST2 antibodies and human ST2-his was performed using Biacore X100, and was carried out at 25° C. in HBS-EP (1×) buffer (pH 7.4).
Each anti-human ST2 antibody was diluted to 10 nM and captured on the surface of a protein A chip (for a capture time of 60 s). […] Association was monitored for 4 min and dissociation for 10 min, and the sensor surface was regenerated by injecting a solution of glycine at pH 2.0. Data generated for kinetics and affinity assay were analyzed using BIAevaluation software.

Row | Binder | IC50, activation of KU812-NF-κB reporter gene by IL33 (ST2 on KU812 cells [1]) [µg/mL] | Relative activity (%) compared with CNTO7160, KU812-NF-κB reporter (ST2 on KU812 cells [1]) [%] | Maximum inhibition rate (%), KU812 IL-5 production (ST2 on KU812 cells [2]) [%] | Relative activity (%), KU812 IL-5 production (ST2 on KU812 cells [2]) [%] | EC50 (Cyno ST2-fc [3]) [µg/mL] | Relative activity (%) (Cyno ST2-fc [3]) | EC50 (Human ST2-his [4]) [µg/mL] | Relative activity (%) compared with CNTO7160 (Human ST2-his [4]) [%] | IC50 (Human ST2-fc (human)) [µg/mL] | Relative activity (%) compared with CNTO7160 (Human ST2-fc (human)) [%] | Kd (Cyno ST2-fc [5]) [nM] | koff (Cyno ST2-fc [5]) [s⁻¹] | kon (Cyno ST2-fc [5]) [M⁻¹ s⁻¹] | Kd (Human ST2-his [6]) [nM] | koff (Human ST2-his [6]) [s⁻¹] | kon (Human ST2-his [6]) [M⁻¹ s⁻¹]
1 | 5886-156H+L (antibody, V domains shown, murine antibody) VH: DVQLQQSGPGLVKPSQSLSLTCTVTGYSITSDYAWNWIRQFPGNKLEWMGYIDYSGSTTYNPSLKSRFSITRDTSKNQFFLQLNSVTTEDTATYYCASTVIDSMDYWGQGTSVTVSS VL: DIVLTQSPASLAVSLGQRATISCRASKSVSTSGHSYMHWYQQKPGQPPKLLIYLASNLESGVPARFSGSGSGTDFTLNINPMEEEDAATYYCQHSREFPFTFGSGTKLEIK | 0.00804 | 127 | 84.2 | 304 | 0.0203 | 66.4 | 0.0161 | 131 | 1.14 | 76.6 | 0.206 | 0.000747 | 3.62e+06 | 0.461 | 0.00109 | 2.37e+06
2 | 5887-41H+L (antibody, V domains shown, murine antibody) VH: DVQLQQSGPGLVKPSQSLSLTCTVTGYSITSDYAWDWIRQFPGNKLEWMGYIRYSGDTYYNPSLKSRISITRDTSKNQFFLQLNSVTTEDTATYYCATTMMDTMDYWGQGTSVTVSS VL: DIVLTQSPASLTVSLGQRATISCRASKSVSTSGNSYMHWYQQKPGQPPKLLIYLASNLESGVPARFSGSGSGTDFTLNIHPVEEEDAATYYCQHSREFPLTFGAGTKLELK | 0.00287 | 41.9 | 79.2 | 128 | 0.0615 | 21.9 | 0.0266 | 97.9 | 1.29 | 82.7 | 0.0903 | 0.000721 | 7.98e+06 | 0.56 | 0.000613 | 1.1e+06
3 | 5888-116H1+L1 (antibody, V domains shown, murine antibody) VH: QVQLQQSGAELVRPGASVTLSCKASGYTFTDSEMYWVRLTPVHGLEWIGAIDPETGDTAFNQKFKGKATLTADKSSSTAYMELRSLTSEDSVVYYCTRAFDNDNDDGFAYWGQGTLVTVSA VL: QIVMTQSPAIMSASPGEKVTMTCSASSSVNYMHWYQQKSGTSPKRWIYDTSKLASGVPARFSGSGSGTSYSLTISSMEAEDAATYYCQQWSSNPLTFGAGTKLELK | 0.206 | 122 | 81.4 | 238 | 0.0384 | 63.7 | 0.0288 | 63.4 | 0.9 | 65.2 | 0.0469 | 0.000382 | 8.14e+06 | 0.113 | 0.00111 | 9.87e+06
4 | 5887-537H3+L1 (antibody, V domains shown, murine antibody; also called 5887-537H3H+L1) VH: QVTLKESGPGILQPSQTLSLTCSFSGFSLSTSGMGVGWIRQPSGKGLEWLAHIWWDDVKQYNPALKSRLTISKDTSSSQVFLKSASVDTADTATYYCARIGGDYDYFDFWGQGTTLTVSS VL: DIVLTQSPASLAVSLGQRATISCRASESVEYSGTSLMQWYQQKPGQPPKLLIYVASNVESGVPARFSGSGSGTDFSLNIHPVEEDDIAMYFCQQSRKVPWTFGGGTKLEIK | 0.101 | 40.2 | 62.2 | 767 | 0.0171 | 78.5 | 0.0123 | 72.4 | 0.99 | 93.5 | 0.0807 | 0.000511 | 6.33e+06 | 0.168 | 0.00084 | 5.01e+06

More lines, now with the values ahead:

Row | IC50, activation of KU812-NF-κB reporter gene by IL33 (ST2 on KU812 cells [1]) [µg/mL] | Relative activity (%) compared with CNTO7160, KU812-NF-κB reporter (ST2 on KU812 cells [1]) [%] | Maximum inhibition rate (%), KU812 IL-5 production (ST2 on KU812 cells [2]) [%] | Relative activity (%), KU812 IL-5 production (ST2 on KU812 cells [2]) [%] | EC50 (Cyno ST2-fc [3]) [µg/mL] | Relative activity (%) (Cyno ST2-fc [3]) | EC50 (Human ST2-his [4]) [µg/mL] | Relative activity (%) compared with CNTO7160 (Human ST2-his [4]) [%] | IC50 (Human ST2-fc (human)) [µg/mL] | Relative activity (%) compared with CNTO7160 (Human ST2-fc (human)) [%] | Kd (Cyno ST2-fc [5]) [nM] | koff (Cyno ST2-fc [5]) [s⁻¹] | kon (Cyno ST2-fc [5]) [M⁻¹ s⁻¹] | Kd (Human ST2-his [6]) [nM] | koff (Human ST2-his [6]) [s⁻¹] | kon (Human ST2-his [6]) [M⁻¹ s⁻¹] | Binder
5 |  |  | 89 |  |  |  |  |  |  |  | 0.136 | 0.000221 | 1.63e+06 | 0.698 | 0.000539 | 827000 | Control antibody CNTO7160 (antibody, human IgG4 S228P, kappa, V domains shown) VH: EVQLLESGGGLVQPGGSLRLSCAASGFTFSIYDMIWVRQAPGKGLEWVSSIRGEGGGTYYADSVKGRFTISRDNSKNTLYLQMNSLRAEDTAVYYCARDPWSTEGSFFVLDYWGQGTLVTVSS VL: EIVLTQSPATLSLSPGERATLSCRASQSVDDDLAWYQQKPGQAPRLLIYDASNRATGIPARFSGSGSGTDFTLTISSLEPEDFAVYYCQQYITAPLTFGQGTKVEIKR
6 | 0.0495 | 506 | 86 | 115 | 0.0303 | 80.7 | 0.0209 | 87.4 | 0.75 | 78.4 | 0.143 | 0.00139 | 9.68e+06 | 0.0943 | 0.000864 | 9.17e+06 | 5888-153H1+L2 (antibody, V domains shown, murine antibody) VH: QVQLQQSGAELVRPGASVTLSCKASGYTFTDYELHWVKQTPVHGLEWIGTIDPETGDTVYNQKFKAKAILTADKSSSTAYMEFRSLTSEDSAVCYCTRAFYNDYDDGFAYWGQGTLVTVSA VL: QIVMTQTPAIMSASPGEKVTMTCSVSSSVSYMHWYQQKSGTSPKRWIYDTSKLASGVPARFSGSGSGTSYSLTINNMEAEDAATYYCQQWNSSPLTFGAGTKLELK
